The values below are quoted from earlier work in paper PMC11133458.

The data set deals with Glu14 (UniProt position 14, GAILAEVIGTT). The conditions noted are these: TPP-bound EmrE (Glu14 of monomer A deprotonated).

As a reminder, the pKa is the pH at which an ionisable group is half protonated. In the case of “EmrE (multidrug efflux transporter, small multidrug resistance family) (Escherichia coli)”, the pKa is given as 6.8.
